Common to all, as to assay: purified protein
What all share (format): biochemical, Rattus norvegicus

Substrate in data set [1]: C[C@H](O)CC(=O)SCCNC(=O)CCNC(=O)[C@H](O)C(C)(C)COP(=O)(O)OP(=O)(O)OC[C@H]1O[C@@H](n2cnc3c(N)ncnc32)[C@H](O)[C@@H]1OP(=O)(O)O
Conditions: 1 mM NAD+, 50 mM Tris pH 9.0, 50 mM KCl, BSA, 25 °C, dehydrogenase site, substrate generated in situ from 2E-butenoyl-CoA by the enzyme's own hydratase site.

Substrate in data set [2]: C/C=C/C(=O)SCCNC(=O)CCNC(=O)[C@H](O)C(C)(C)COP(=O)(O)OP(=O)(O)OC[C@H]1O[C@@H](n2cnc3c(N)ncnc32)[C@H](O)[C@@H]1OP(=O)(O)O
Conditions: 50 mM Tris pH 9.0, 50 mM KCl, BSA, 25 °C, hydratase site.

Substrate in data set [3]: CC(=O)CC(=O)SCCNC(=O)CCNC(=O)[C@H](O)C(C)(C)COP(=O)(O)OP(=O)(O)OC[C@H]1O[C@@H](n2cnc3c(N)ncnc32)[C@H](O)[C@@H]1OP(=O)(O)O
The following applies: 0.1 mM NADH, 50 mM Tris/HCl pH 7.0, 50 mM KCl, BSA, 25 °C, dehydrogenase site.

The term Km denotes the concentration of substrate that gives half-maximal velocity. For orientation: kcat means the number of substrate molecules converted per active site and unit of time at saturation. For orientation: kcat/Km means the turnover number divided by the Michaelis constant.

B1: rat peroxisomal multifunctional enzyme, type-1 (rpMFE1) (Rattus norvegicus) (protein)
chain: MAEYLRLPHSLAMIRLCNPPVNAVSPTVIREVRNGLQKAGSDHTVKAIVICGANGNFCAGADIHGFSAFTPGLALGSLVDEIQRYQKPVLAAIQGVALGGGLELALGCHYRIANAKARVGLPEVTLGILPGARGTQLLPRVVGVPVALDLITSGKYLSADEALRLGILDAVVKSDPVEEAIKFAQKIIDKPIEPRRIFNKPVPSLPNMDSVFAEAIAKVRKQYPGVLAPETCVRSIQASVKHPYEVGIKEEEKLFMYLRASGQAKALQYAFFAEKSANKWSTPSGASWKTASAQPVSSVGVLGLGTMGRGIAISFARVGISVVAVESDPKQLDAAKKIITFTLEKEASRAHQNGQASAKPKLRFSSSTKELSTVDLVVEAVFEDMNLKKKVFAELSALCKPGAFLCTNTSALNVDDIASSTDRPQLVIGTHFFSPAHVMRLLEVIPSRYSSPTTIATVMSLSKKIGKIGVVVGNCYGFVGNRMLAPYYNQGFFLLEEGSKPEDVDGVLEEFGFKMGPFRVSDLAGLDVGWKIRKGQGLTGPSLPPGTPVRKRGNSRYSPLGDMLCEAGRFGQKTGKGWYQYDKPLGRIHKPDPWLSTFLSQYREVHHIEQRTISKEEILERCLYSLINEAFRILEEGMAARPEHIDVIYLHGYGWPRHKGGPMFYAASVGLPTVLEKLQKYYRQNPDIPQLEPSDYLRRLVAQGSPPLKEWQSLAGPHGSKL
notes: full length, 722 residues, pET15b recombinant; crystal model of molecule A starts at residue -4 (N-terminal vector/tag residues present); monomer
Regarding B1, in “purified protein [1]”, the Km is 3.6 ± 1.0 µM, the kcat turned out to be 1.7 ± 0.1 s⁻¹ and the kcat/Km is 500000 M⁻¹ s⁻¹. For the same protein, in the data set “purified protein [2]”, the Km stood at 82.0 ± 18.0 µM, the kcat amounted to 113 ± 33 s⁻¹ and the catalytic efficiency (kcat/Km) was 1.4e+06 M⁻¹ s⁻¹. In “purified protein [3]”, the Km worked out at 44.0 ± 15.0 µM, the kcat is 23 ± 2.3 s⁻¹ and the kcat/Km is 500000 M⁻¹ s⁻¹.

The values above are taken from PMC5715344, “Structural enzymology comparisons of multifunctional enzyme, type‐1 (MFE1): the flexibility of its dehydrogenase part” (FEBS Open Bio, 2017).
